12 compounds from patent US20250042943A1, “FAP DETECTION” (THE UNIVERSITY COURT OF THE UNIVERSITY OF EDINBURGH, priority 2021, published 2025) can be followed below.

Entries after “also recorded” stand apart in the source; their conditions may differ. Where a SMILES comes first, the peptide text is derived from it. [ ]: non-standard residue; d: D form. The star is where a group is joined. 5FAM = O=C1OC2(c3ccc(O)cc3Oc3cc(O)ccc32)c2ccc(C(=O)*)cc21; X1 = CN(C)c1ccc(N=Nc2ccccc2C(=O)*)cc1; AEEA = NCCOCCOCC(=O)O

A short description of series [1]: Toxicity in rats, intravenous (bolus) dosing for 7 days. The note with it: intravenous (bolus) injection of 0.1 mg for 7 days. Format: in vivo. On the procedure: The potential toxicity of the FAP probe was assessed by dosing rats with an intravenous (bolus) injection of 0.1 mg of the FAP3 probe for 7 days.
Series [2] deals with NSCLC patient tissue samples. Put plainly: Fluorescence intensity and lifetime imaging (FLIM, KronoScan) of ex vivo NSCLC tissue. It counts as cell-based, human. The conditions noted are these: VBP (1:1000) added with FAP3; listed as VBP. On the procedure: For imaging solutions, varying concentrations of rhFAP were prepared in blackened eppendorfs and FAP3 to a final concentration of 5 μm added and imaged as below. For biological specimens, NSCLC patient tissue samples from surgical resection were used fresh or snap frozen and stored at −80 until required. Small fragments (approx. 4 mm^3) incubated at 37° C. in a 96 well plate in phenyl-red free DMEM (Gibco) containing 10% FCS, 1% Penicillin-streptomycin and 1% L-Glutamine. For the inhibitor fragments VBP (1:1000) was added. Samples were then imaged using a clinically tractable novel fluorescence lifetime imaging system, KronoScan, with an imaging fibre providing a 400×400 um field of view. […] This spectrometer contains a 512 channel single photon avalanche diode (SPAD) sensor, allowing for the rapid collection of time resolved spectral fluorescence lifetime data. Fluorescence intensity and lifetime images were collected at 160×160 pixels over a 498-570 nm spectral range with an exposure time of 13 μs per pixel. […]
For each condition the tumour samples were imaged using a fibre placed at the tip of the tissue (baseline), and then again at 10 minute intervals following the additions of equimolar concentrations of probe+/− Inhibitor. […] Each condition and time-point data for both fluorescence intensity and lifetime were collected. […]

For series [3], the system named is cancer associated fibroblasts (CAFs) from NSCLC patient samples. The experiment in a line: Assessment on cancer associated fibroblasts (CAFs). It counts as cell-based, human. The note with it: co-incubated with FAP3. The method, then: CAFs were isolated from NSCLC patient samples as previously described methods known in the art. Briefly, tissue samples were minced with forceps and incubated for an hour in prewarmed RPMI media (Gibco) containing collagenase IV [2 mg/ml](Sigma) and DNase [0.2 mg/ml](Sigma). Samples were spun at 350 g for 5 minutes and red blood cells were lysed from samples using RBC lysis buffer (BioLegend) in 10 mls for 10 minutes. Following a further spin at 350 g for 5 minutes, cells were seeded in culture flasks in DMEM containing 10% FCS, 1% Penicillin-Streptomycin, 1% L-Glutamine and 10% Insulin Transferrin Selenium (ITS). 24 hours after seeding, non-adherent cells were washed from the flasks. Cells were maintained by standard cell culture methods and by passage 2, the predominant cell type was CAFs, assessed by flow cytometry markers and morphology. CAFs between passage 4-9 were used to assess FAP probes and confirmed to be FAP^hi by flow cytometry.
CAFs were seeded into 96 well plates in a 100 μl media (complete DMEM as described above) at a density of 1×10^5 cells/ml to form a confluent monolayer within 24 hours. Wells containing cells had media removed and then were washed before buffer (DPBS)+/− inhibitors were added with the imaging probes. Immediately after adding imaging probes, the plate was transferred to the prewarmed spectrophotometer as above and read at 480/530 nm for one hour.

For another series, the target named is T1, rhFAP (Homo sapiens, UniProt Q12884).
T1 sequence (Q12884 1-760): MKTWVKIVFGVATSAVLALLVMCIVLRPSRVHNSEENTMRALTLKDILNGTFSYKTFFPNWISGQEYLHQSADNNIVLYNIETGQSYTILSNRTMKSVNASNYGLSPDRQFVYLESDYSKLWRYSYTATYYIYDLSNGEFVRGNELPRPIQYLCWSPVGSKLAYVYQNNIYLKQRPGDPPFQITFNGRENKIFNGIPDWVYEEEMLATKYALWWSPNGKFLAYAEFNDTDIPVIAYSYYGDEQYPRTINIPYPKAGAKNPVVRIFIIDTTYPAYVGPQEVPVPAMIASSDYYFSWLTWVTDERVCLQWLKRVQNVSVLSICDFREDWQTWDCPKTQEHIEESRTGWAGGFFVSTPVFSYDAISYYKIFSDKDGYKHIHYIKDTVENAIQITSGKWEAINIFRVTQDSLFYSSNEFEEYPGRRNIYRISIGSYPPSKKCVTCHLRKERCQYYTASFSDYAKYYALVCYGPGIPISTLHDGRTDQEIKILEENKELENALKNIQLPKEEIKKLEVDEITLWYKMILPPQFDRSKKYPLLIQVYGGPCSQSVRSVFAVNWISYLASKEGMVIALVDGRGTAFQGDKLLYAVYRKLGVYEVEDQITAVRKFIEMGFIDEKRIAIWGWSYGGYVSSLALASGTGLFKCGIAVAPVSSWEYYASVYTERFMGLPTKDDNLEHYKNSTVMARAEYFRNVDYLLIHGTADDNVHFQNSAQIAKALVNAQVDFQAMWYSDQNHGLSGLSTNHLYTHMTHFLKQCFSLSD
The experiment in a line: Probe cleavage by recombinant human FAP (fluorescence read). It counts as biochemical. The note with it: for signal (relative fluorescence intensity) with rhFAP: comparison between probe iterations; for FAP specificity (over PREP): from recombinant enzyme assessment; for cleavage by rhFAP: probe 5 μM, enzyme 0.1 μg/ml, read 480/530 nm.

In a further series the target is T2, rhPREP (Homo sapiens, UniProt P48147).
T2 sequence (P48147 1-710): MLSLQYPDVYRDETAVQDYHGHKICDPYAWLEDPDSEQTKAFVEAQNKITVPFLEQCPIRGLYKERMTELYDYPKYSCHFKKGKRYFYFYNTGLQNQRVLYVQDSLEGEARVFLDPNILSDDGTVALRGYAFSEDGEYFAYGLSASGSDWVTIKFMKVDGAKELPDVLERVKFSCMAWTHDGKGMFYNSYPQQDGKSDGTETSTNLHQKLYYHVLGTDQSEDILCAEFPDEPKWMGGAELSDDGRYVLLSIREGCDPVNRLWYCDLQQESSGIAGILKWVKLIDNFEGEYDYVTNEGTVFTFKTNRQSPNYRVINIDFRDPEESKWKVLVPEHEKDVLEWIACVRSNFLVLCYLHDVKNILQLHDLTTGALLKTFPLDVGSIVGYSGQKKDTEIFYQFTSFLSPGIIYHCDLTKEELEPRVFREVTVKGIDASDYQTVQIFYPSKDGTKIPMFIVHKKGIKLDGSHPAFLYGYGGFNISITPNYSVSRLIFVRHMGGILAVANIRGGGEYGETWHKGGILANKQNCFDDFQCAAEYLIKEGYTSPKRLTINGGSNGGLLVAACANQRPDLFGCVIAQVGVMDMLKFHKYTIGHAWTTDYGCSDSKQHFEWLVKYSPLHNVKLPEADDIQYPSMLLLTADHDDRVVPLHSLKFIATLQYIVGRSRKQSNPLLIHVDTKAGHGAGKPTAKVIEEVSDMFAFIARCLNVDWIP
The experiment in a line: Probe cleavage by recombinant human PREP. Format: biochemical. The note with it: probe 5 μM, enzyme 0.1 μg/ml, read 480/530 nm.

In the next series the target is rhDPPIV (Homo sapiens, UniProt P27487). The experiment in a line: Probe cleavage by recombinant human DPPIV (exopeptidase activity). Format: biochemical. The note with it: probe 5 μM, enzyme 0.1 μg/ml, read 480/530 nm.
Sequence of rhDPPIV (P27487 whole entry): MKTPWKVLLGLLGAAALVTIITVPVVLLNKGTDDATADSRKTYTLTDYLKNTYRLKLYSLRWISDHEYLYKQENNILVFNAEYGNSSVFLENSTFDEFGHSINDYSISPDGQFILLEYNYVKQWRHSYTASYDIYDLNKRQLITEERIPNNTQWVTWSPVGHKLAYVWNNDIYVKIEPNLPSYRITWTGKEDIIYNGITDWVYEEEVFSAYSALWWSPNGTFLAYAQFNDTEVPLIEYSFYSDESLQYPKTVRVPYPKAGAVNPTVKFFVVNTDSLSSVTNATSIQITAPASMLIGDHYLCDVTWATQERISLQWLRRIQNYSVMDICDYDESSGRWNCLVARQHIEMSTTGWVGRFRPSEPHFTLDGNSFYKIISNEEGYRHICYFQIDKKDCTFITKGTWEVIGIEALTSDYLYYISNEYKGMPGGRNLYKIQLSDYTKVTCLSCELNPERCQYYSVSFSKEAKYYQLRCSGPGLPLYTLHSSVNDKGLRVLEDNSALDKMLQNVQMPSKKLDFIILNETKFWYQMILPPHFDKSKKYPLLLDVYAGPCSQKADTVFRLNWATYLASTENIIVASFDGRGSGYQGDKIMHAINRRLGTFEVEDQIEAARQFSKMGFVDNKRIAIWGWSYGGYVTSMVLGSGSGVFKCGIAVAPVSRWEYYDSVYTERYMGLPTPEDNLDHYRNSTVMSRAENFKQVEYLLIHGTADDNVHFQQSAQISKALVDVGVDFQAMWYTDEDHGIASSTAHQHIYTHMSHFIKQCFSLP

As for “FAP on cancer associated fibroblasts (CAFs) from NSCLC patient samples”, the “cleavage of FRET probe on a CAF monolayer (fluorescence 480/530 nm, one hour)” value with FAP3 was “FAP3 was cleaved by FAP^+CAFs, with inhibition of signal when co-incubated with Val-boroPro”.

For the compound MMP-13 (recombinant enzyme), in the series on FAP3, the “cleavage of FRET probe by recombinant enzyme (fluorescence)” value was “demonstrating no activity”.

`CC(C)[C@H](NC(=O)[C@@H](N)CCCCNC(=O)c1ccccc1N=Nc1ccc(N(C)C)cc1)C(=O)N[C@H](CO)C(=O)N1CCC[C@H]1C(=O)N[C@@H](CC(N)=O)C(=O)N[C@@H](CCC(N)=O)C(=O)NCC(=O)N[C@@H](CCCCNC(=O)c1ccc2c(c1)C(=O)OC21c2ccc(O)cc2Oc2cc(O)ccc21)C(=O)NCCOCCOCC(=O)N[C@H](CCCCN)C(=O)NCCOCCOCC(=O)N[C@H](CCCCN)C(=O)NCCOCCOCC(=O)N[C@H](CCCCN)C(N)=O` [FAP3, Lys(MethylRed)-Val-(D)Ser-Pro-Asn-Gln-Gly-Lys(5-FAM)-[Peg2-(D)Lys]3-NH2] (H-K(X1)V[dS]PNQGK(5FAM)[AEEA][dK][AEEA][dK][AEEA][dK]-NH2): in series [1], the clinical signs result is listed as “no clinical signs” and the deaths entry is reported as “no deaths”. For the same compound, the “differences in body weights, body weight gains, food consumption, haematology, coagulation, clinical chemistry, organ weights and macroscopic and microscopic examinations” value in series [1] (compared to a control group) is recorded as “no differences”.

As to `CC(C)[C@H](N)C(=O)N1CCC[C@H]1B(O)O` [Val-boroPro], the “inhibition of FAP3 intensity and lifetime change in NSCLC tissue” value in series [2] is given as “inhibition; also recorded: abrogated”. In addition, the “inhibition of FAP3 signal in CAFs” value was “inhibition of signal” in series [3] and “signal was abrogated” in series [3] (listed as VBP).

For the compound “Lys(MethylRed)-(D)Thr-Pro-Ser-Lys(5-FAM)-[Peg2-(D)Lys]3-NH2 [FAP2DD-Thr]”, in the series with rhFAP, the “signal (relative fluorescence intensity) with rhFAP” value is listed as “reduced signal” and the “FAP specificity (over PREP)” value is listed as “FAP specificity over PREP”.

As for “Lys(MethylRed)-(β)Ala-Pro-Ser-Lys(5-FAM)-[Peg2-(D)Lys]3-NH2 [FAP2Fβ-Ala]”, in the series with rhFAP, the “signal (relative fluorescence intensity) with rhFAP” value is “reduced signal” and the “FAP specificity (over PREP)” value is recorded as “FAP specificity over PREP”.

Turning to “FAM-Peg2-Gly-Pro-Gly-(D)Pro-(D)Asn-Gln-Lys(MethylRed)-NH2 [FAP1DLi-FAM]”, the “cleavage by rhPREP” value with rhPREP was “cleaves; also recorded: partial reduction in activity”; in the series with rhPREP (listed as FAP1 DLi-FAM), “still demonstrated PREP cleavage”. The “cleavage by rhDPPIV (exopeptidase activity)” value in the series with rhDPPIV is recorded as “Neither FAP1Li-FAM or FAP1 DLi-FAM are cleaved”. Besides, the “cleavage by rhFAP” value with rhFAP was “lower rate of cleavage; also recorded: FAP activity was significantly reduced”.

Consider “FAM-Peg2-Gly-Pro-Gly-Pro-Asn-Gln-Lys(MethylRed)-NH2 [FAP1Li-FAM]”, for which the “cleavage by rhPREP” value in the series with rhPREP is on record as “cleaved more rapidly; also recorded: endopeptidase activity”. Moreover, in the series with rhDPPIV, the “cleavage by rhDPPIV (exopeptidase activity)” value was “Neither FAP1Li-FAM or FAP1 DLi-FAM are cleaved; also recorded: did not cleave”. In addition, in the series with rhFAP, the “signal (relative fluorescence intensity) with rhFAP” value is “signal intensity of FAP1 is higher” and the “cleavage by rhFAP” value is recorded as “cleaved rapidly; also recorded: endopeptidase activity”.

In the case of “Lys(MethylRed)-(D)Ala-Pro-Ser-Lys(5-FAM)-[Peg2-(D)Lys]3-NH2 [FAP2BD-Ala]”, in the series with rhFAP, the “signal (relative fluorescence intensity) with rhFAP” value was “reduced signal” and the “FAP specificity (over PREP)” value was “FAP specificity over PREP”.

Take “Lys(MethylRed)-D-Tyr-Pro-Ser-Lys(5-FAM)-[Peg2-(D)Lys]3-NH2 [FAP2ED-Tyr]”: the “cleavage by rhFAP” value with rhFAP is “loss of FAP activity”.

As for “Lys(MethylRed)-Ala-Pro-Ser-Lys(5-FAM)-[Peg2-(D)Lys]3-NH2 [FAP2AAla]”, in the series with rhPREP, the “cleavage by rhPREP” value is listed as “is cleaved; also recorded: demonstrated cleavage by PREP”. The “cleavage by rhFAP” value with rhFAP was “FAP activity was absent”.

Take “Lys(MethylRed)-(D)Ser-Pro-Ser-Lys(5-FAM)-[Peg2-(D)Lys]3-NH2 [FAP2CD-Ser]”: in the series with rhPREP, the “cleavage by rhPREP” value is recorded as “without PREP cleavage”. Moreover, in the series with rhFAP (listed as D-Ser), the “signal (relative fluorescence intensity) with rhFAP” value is listed as “reduced signal” and the “FAP specificity (over PREP)” value is “FAP specificity over PREP”. In the series with rhFAP, the “FAP specificity (over PREP)” value is listed as “demonstrates FAP specificity” and the “cleavage by rhFAP” value is “highest rate of cleavage”.
